Here are results for three compounds from PMC10945777 (Proceedings of the National Academy of Sciences of the …, 2024).

Assay [1] deals with NrtBCD (nitrate site in NrtB dimer) (Nostoc sp. PCC 7120 = FACHB-418, UniProt A0ACD6B946). The assay is described as follows: colorimetric ATPase assay. It counts as biochemical. Particulars: 2 mM MgCl2, 50 mM Tris-HCl pH 8.0, 150 mM NaCl, 0.02% GDN, 37 °C.
Assay [2] addresses NrtB of Anabaena sp. PCC 7120 (transmembrane subunit, as it stands in NrtBCD) (Anabaena sp. PCC 7120). The assay is described as follows: cryo-EM structure.
Assay [3] addresses signaling protein PII of Anabaena sp. PCC 7120 (Anabaena sp. PCC 7120). The assay is described as follows: cryo-EM structure.

`O=[N+]([O-])O` [nitrate]: in assay [1], the “fold stimulation of ATPase activity at 8 mM” value is ~ 2.5 fold.

A word on the stoichiometry N: it is the number of molecules, sites or subunits per partner or assembly. Consider “NrtB of Anabaena sp. PCC 7120 (transmembrane subunit, as it stands in NrtBCD) (natural protein)”, for which the stoichiometry N in assay [2] was 2.

Compound “signaling protein PII of Anabaena sp. PCC 7120 (natural protein)” displayed a stoichiometry N in assay [3] of 3.
